Among the data in PMC10629668 are intensity of the complex against the CLIP2-serpin-1a complex (after PAMPs stimulation, control hemolymph subtracted) values, retold here.

The experiment addresses serpin-6, endogenous in silkworm hemolymph (Bombyx mori (endogenous in larval hemolymph)). The experiment is described as follows: co-IP; antibodies against serpin-1 or serpin-6; hemolymph of naive larvae or of larvae 24 h after injection of LPS, PGN or CDN; immunoblot with antibodies against serpin-1a, serpin-6 and CLIP2. (In general: A western blot detects proteins with antibodies after separation by electrophoresis.)

As for “CLIP2, endogenous in silkworm hemolymph (enzyme)”, the intensity of the complex against the CLIP2-serpin-1a complex (after PAMPs stimulation, control hemolymph subtracted) is 2 fold.
